Assay results from the nanobody polyreactivity screen of Harvey et al. (2022).

Experiment: yeast display, Sf9 membrane polyspecificity reagent, FACS + sequencing; frameworks hold sequencing errors
Method in brief: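 Galactose-induced (36–48 hours) yeast carrying a synthetic nanobody display library were exposed to 10% biotinylated, detergent-solubilized Sf9 membrane reagent at 4 °C for 1 hour. FACS followed streptavidin microbead enrichment, using low and high (top ~1%) gates for expression (anti-HA) and reagent binding (streptavidin). Colony PCR, MiSeq 2 × 250 sequencing and CDR-length filtering followed. Labels for polyreactivity reflect the gate of origin.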

**Q.** For “QVQLVESGGGLVQAGGSLRLSCAASGNIFDRNAMGWYRHAPGKESELVAAISRSGGRTYYADSVKGRFTISRDNAKNTVYLQMNSLKPEDTAVYYCNRRYRNYSSAKYDYWGQGTQVTVSS”, which “polyreactivity (PSR sort gate)” value is on record?
**A.** The value was “high polyreactivity”.

**Q.** With “QVQLVESGGGLVQAGGSLRLSCAASGNIFDSYAMGWYRQAPGKERELVAAISFSGGNTYYADSVKGRFTISRDNAKNTVYLQMNSLKPEDTAVYYCAADYFAVTPYRAADVAEDYWGQGTQVTVSS” as the sequence, how does the “polyreactivity (PSR sort gate)” value read?
**A.** The value was “low polyreactivity”.

**Q.** Which “polyreactivity (PSR sort gate)” value does the source give for “QVQLVESGGGLVQAGGSLRLSCAASGNIFDTYVMGWYRQAPGKERELVAAITSDGGTYYADSVKGRFTISRDNAKNTVYLQMNSLKPEDTAVYYCAADTYYYPIHDYWGQGTQVTVSS” here?
**A.** Its value is “low polyreactivity”.

**Q.** For “QVQLVESGGGLVQAGGSLRLSCAASGNIFESYCMGWYRQAPGKERELVATINTSSGSTYYADSVKGRFTISRDTAKNTVYLQMNSLKPEDTAVYYCAAEWYPYPWGYGYWGQGTQVTVSS”, which “polyreactivity (PSR sort gate)” value is on record?
**A.** The value was “low polyreactivity”.

**Q.** Which “polyreactivity (PSR sort gate)” value does the source give for “QVQLVESGGGLVQAGGSLRLSCAASGNIFESYGMGWYRQAPGKERELVATINTSSGSTYYADSVKGRFTISRDNAKNSVYVQMNSLKPEDTAVYYCAAEWYPYPWGYGYWGQGTQVTVSS” here?
**A.** The value was “low polyreactivity”.

**Q.** With “QVQLVESGGGLVQAGGSLRLSCAASGNIFGDNAMGWYRQAPGKERELVAAITRIDGNTYYADSVKGRFTISRDNAKNTVYLQMNSLKPEDTAVYYCATDEPVGRYQHNYYWGQGSQVTVSS” as the sequence, how does the “polyreactivity (PSR sort gate)” value read?
**A.** The value was “low polyreactivity”.

**Q.** With “QVQLVESGGGLVQAGGSLRLSCAASGNIFGFYTMGWNRQAPGKERELVAAIRSRGGSTNYADSVKGRFTISRDTAKNTVYLQMNSLKPEDTAVYYCNKDGTWLARAVTYADFDYWGQGTQVTVSS” as the sequence, how does the “polyreactivity (PSR sort gate)” value read?
**A.** The value was “low polyreactivity”.

**Q.** With “QVQLVESGGGLVQAGGSLRLSCAASGNIFGIYAMGWYRQAPGKERELVAAIRGRGASTYYADSVKGRFTISRDNAKNTVYLQMNSLKPEDTAVYYCAVDVPLSRYWWRRTYDYWGQGTQVTVSS” as the sequence, how does the “polyreactivity (PSR sort gate)” value read?
**A.** The value was “low polyreactivity”.

**Q.** Which “polyreactivity (PSR sort gate)” value does the source give for “QVQLVESGGGLVQAGGSLRLSCAASGNIFGKNVMGWYRQAPGKEREFVAAITSRGGRTNYADSVKGRFTISRDNAKNTVYLQMNSLKPEDTAVYYCATRYKSPSFDYWGQGTQVTVSS” here?
**A.** Its value is “high polyreactivity”.

**Q.** Which “polyreactivity (PSR sort gate)” value does the source give for “QVQLVESGGGLVQAGGSLRLSCAASGNIFGVYAMGWYRQAPGKERELVAAITSGGTSTSYADSVKGRFTISRDNAKNTVYLQINSLKPEDTAVYYCATESSGKLSEYAYWGQGTQVTVSS” here?
**A.** Its value is “low polyreactivity”.

**Q.** For “QVQLVESGGGLVQAGGSLRLSCAASGNIFGYYVMGWYRQAPGKERELVAGISSGDSTDYADSVKGRFTISRDNAKNTVYLQMNSLKPEDTAVYYCNADWNPTERWFYWYTPLGYDYWGQGTQVTVSS”, which “polyreactivity (PSR sort gate)” value is on record?
**A.** Its value is “low polyreactivity”.

**Q.** Which “polyreactivity (PSR sort gate)” value does the source give for “QVQLVESGGGLVQAGGSLRLSCAASGNIFITNAMGWYRQAPGKERELVADISFSGGSTNYADSVKGRFTISRDNAKNTVYLQMNSLKPEDTAVYYCAARALASVSAHKYDNWGQGTQVTVST” here?
**A.** Its value is “low polyreactivity”.

**Q.** For “QVQLVESGGGLVQAGGSLRLSCAASGNIFIYNAMGWYRQAPGQERELVAAISVSGGDTYYADSVKGRFTISRDNAKNTVYLQMNSLKPEDTAVYYCKASYVLTGQRYGYWGQGTQVTVSS”, which “polyreactivity (PSR sort gate)” value is on record?
**A.** The value was “low polyreactivity”.

**Q.** Which “polyreactivity (PSR sort gate)” value does the source give for “QVQLVESGGGLVQAGGSLRLSCAASGNIFKVNAMGWYRQAPGKERELVAGISWSGGSTYYADSVKGRFTISRDNAKNTVYLQMNSLKPEDTAVYYGNVGRGYWGYLYDYWGQGTQGTVSS” here?
**A.** The value was “low polyreactivity”.

**Q.** For “QVQLVESGGGLVQAGGSLRLSCAASGNIFKYYTMRWYRQAPGKERELVAAITSGGRTNYADSVKGRFTISRDNAKNTVYLQMNSLKPEDTAVYYCAAYDVIYSQGFDYWGQGTQVTVSS”, which “polyreactivity (PSR sort gate)” value is on record?
**A.** Its value is “low polyreactivity”.

**Q.** For “QVQLVESGGGLVQAGGSLRLSCAASGNIFLYYAMGWYRQAPGKERELVADIDSSGASTYYADSVKGRFTMSRDNAKNTVYLQMNSLKPEDTAVYYCAAEFHWWYAGYDYGYWGQGTQVTVSS”, which “polyreactivity (PSR sort gate)” value is on record?
**A.** The value was “low polyreactivity”.

**Q.** Which “polyreactivity (PSR sort gate)” value does the source give for “QVQLVESGGGLVQAGGSLRLSCAASGNIFNLYAMGWYRQAPGKERELVAAIRGSGSTYYADSVKGRFTISRDNAKNTVYLQMNSLKPEDTAVYYCAAGISGHYYWGQGTQVTVSS” here?
**A.** The value was “high polyreactivity”.

**Q.** Which “polyreactivity (PSR sort gate)” value does the source give for “QVQLVESGGGLVQAGGSLRLSCAASGNIFNTYAMGWYRQAPGKERELVAVISSRCGRTYYADSVKGRFTISRENAKNTVYLQMNSLKPEDTAVYYCAAGKHVTFSYEYRMDYWGVGTQVTVSS” here?
**A.** Its value is “low polyreactivity”.

**Q.** Which “polyreactivity (PSR sort gate)” value does the source give for “QVQLVESGGGLVQAGGSLRLSCAASGNIFPDYAMGWYRQAPGKERELVAAISSSGSSTYYADSVKGRFTISRDNAKNTVYLQMNSLKKEDTAVYYCATRVYLPTFYIRDTQYYYWGQGTQVTVSS” here?
**A.** Its value is “low polyreactivity”.

**Q.** Which “polyreactivity (PSR sort gate)” value does the source give for “QVQLVESGGGLVQAGGSLRLSCAASGNIFPMNAMGWYIEAPGKERELVAAISYSGTSTYYADSVKGRFTISRDKAKNTVYLQMNSLKPEDTAVYYCAARVQRLNLGDYNYWGQGTQVTVSS” here?
**A.** Its value is “low polyreactivity”.

**Q.** For “QVQLVESGGGLVQAGGSLRLSCAASGNIFPRYAMGWYRQAPGKERELVARISSGGSTDYADSVKGRFTISRDNAKNTVYLQMNSLKPEDTAVYYCAAEYYSQTVNYRRVVGYGYWGQGTQVTVSS”, which “polyreactivity (PSR sort gate)” value is on record?
**A.** The value was “high polyreactivity”.

**Q.** Which “polyreactivity (PSR sort gate)” value does the source give for “QVQLVESGGGLVQAGGSLRLSCAASGNIFPYYTLGWYRKAPGKEREWVAAITIGGSTYYADSEKGRFTISRDNAKNTVYLQMNSLKPEDTAVYYCAARSRYYDTRFEYWGQGTQVTVSS” here?
**A.** Its value is “low polyreactivity”.

**Q.** With “QVQLVESGGGLVQAGGSLRLSCAASGNIFPYYTMGWYRQAPGKERELVAAISSSGSTYYADSVKGRFTISRDNAKNTVYLQMNSLKPEDTAVYYCAARLYPYGWYDYWGQGTQVTVSS” as the sequence, how does the “polyreactivity (PSR sort gate)” value read?
**A.** The value was “high polyreactivity”.

**Q.** For “QVQLVESGGGLVQAGGSLRLSCAASGNIFRRYAMGWYREAPGKERELVAAISRGGTRTYYADSVKGRFTISRDNAKNTVYLQMNSLKPEDTAVYYCNAEVNTNYRIADYDYWGQGTQVTVSS”, which “polyreactivity (PSR sort gate)” value is on record?
**A.** The value was “high polyreactivity”.

**Q.** Which “polyreactivity (PSR sort gate)” value does the source give for “QVQLVESGGGLVQAGGSLRLSCAASGNIFRVYDMGWYRQAPGKERELVPVIRWSSGRTYYADSVKGRFTISRDNAKNTVYLQMNSLKPEDTAVYYCATKLWRVPRNSHYDSYEYWGQGTQVTVSS” here?
**A.** The value was “high polyreactivity”.

**Q.** Which “polyreactivity (PSR sort gate)” value does the source give for “QVQLVESGGGLVQAGGSLRLSCAASGNIFRYYAMGWYRPAPGKERELVAAISSRGGSTYYADSVKGRFTISRDNAKNTVYLQMTSLKPADTAVYYCAAGGYDVYHDPYYYWGQGTQVTVSS” here?
**A.** The value was “low polyreactivity”.

**Q.** For “QVQLVESGGGLVQAGGSLRLSCAASGNIFSAYAMGWYRQAPGKEREFVAAISYSGGNTYYADSVKGRFTISRDNAKNTVYLLMNSLKPEVSAVYYCAARVLNKYYRYGYWGQGTQVTVSS”, which “polyreactivity (PSR sort gate)” value is on record?
**A.** The value was “high polyreactivity”.

**Q.** For “QVQLVESGGGLVQAGGSLRLSCAASGNIFSDYAMGSYRQAPGKERELVAAISSGGNTNYADSVKGRFSISRDNAKKTVYLQMNSLKPEDTAVYYCAAFYNTTYTLLPAYSDVNYYYWGQGTQVTVSS”, which “polyreactivity (PSR sort gate)” value is on record?
**A.** Its value is “low polyreactivity”.

**Q.** Which “polyreactivity (PSR sort gate)” value does the source give for “QVQLVESGGGLVQAGGSLRLSCAASGNIFSFYTMGWYRQAPGKERELVAAISWSGTSTYYADSVKGRFTISRDNAKNTVYLQMNSLKPEDTAVYYCAAERWWSGYEYWGQGTQVTVSS” here?
**A.** The value was “high polyreactivity”.

**Q.** With “QVQLVESGGGLVQAGGSLRLSCAASGNIFSYNAMGWYRQAPGKERELVAAITTSSGRTYYADSVKGRFTISRDNAKNTVYLQMNSLKPEDTAVYYCNRTVSRRSYRWDYDYWGQGTQVTVSS” as the sequence, how does the “polyreactivity (PSR sort gate)” value read?
**A.** The value was “high polyreactivity”.

**Q.** For “QVQLVESGGGLVQAGGSLRLSCAASGNIFTGNDMGWYRQAPGKERELVAAISKRGGSTFYADSVKGRFTISRDNAKNTVYLQMNSLKPEDTEGYYCNALRRGVRDPYGYWGQGTQVTVSS”, which “polyreactivity (PSR sort gate)” value is on record?
**A.** The value was “high polyreactivity”.
